*1 amine or outer side, *2 acyl side, *3 side chain or, on linkers, in order; H or OH if unused. Where no end group is shown, it is not given here. Side-chain parts run from the residue outwards. The star is where a group is joined. C18 diacid = O=C(O)CCCCCCCCCCCCCCCCC(=O)*; C16 diacid = O=C(O)CCCCCCCCCCCCCCC(=O)*; γGlu = O=C(O)[C@H](CCC(=O)[*:2])N[*:1]; C14 diacid = O=C(O)CCCCCCCCCCCCC(=O)*; AEEA = NCCOCCOCC(=O)O
B1: N^ε24-[(4S)-4-carboxy-4-[[(4S)-4-carboxy-4-[[2-[2-[2-[[2-[2-[2-[[(4S)-4-carboxy-4-(17-carboxyheptadecanoylamino)butanoyl]amino]ethoxy]ethoxy]acetyl]amino]ethoxy … (peptide)
peptide: HSQGTFTSDYSKYLDTRRAQDFVK([γGlu-γGlu-AEEA-AEEA-γGlu-C18 diacid])WLLST-NH2
modifications: N-terminus assumed
SMILES: CC(C)C[C@H](NC(=O)[C@H](Cc1c[nH]c2ccccc12)NC(=O)[C@H](CCCCNC(=O)CC[C@H](NC(=O)CC[C@H](NC(=O)COCCOCCNC(=O)COCCOCCNC(=O)CC[C@H](NC(=O)CCCCCCCCCCCCCCCCC(=O)O)C(=O)O)C(=O)O)C(=O)O)NC(=O)[C@@H](NC(=O)[C@H](Cc1ccccc1)NC(=O)[C@H](CC(=O)O)NC(=O)[C@H](CCC(N)=O)NC(=O)[C@H](C)NC(=O)[C@H](CCCNC(=N)N)NC(=O)[C@H](CCCNC(=N)N)NC(=O)[C@@H](NC(=O)[C@H](CC(=O)O)NC(=O)[C@H](CC(C)C)NC(=O)[C@H](Cc1ccc(O)cc1)NC(=O)[C@H](CCCCN)NC(=O)[C@H](CO)NC(=O)[C@H](Cc1ccc(O)cc1)NC(=O)[C@H](CC(=O)O)NC(=O)[C@H](CO)NC(=O)[C@@H](NC(=O)[C@H](Cc1ccccc1)NC(=O)[C@@H](NC(=O)CNC(=O)[C@H](CCC(N)=O)NC(=O)[C@H](CO)NC(=O)[C@@H](N)Cc1c[nH]cn1)[C@@H](C)O)[C@@H](C)O)[C@@H](C)O)C(C)C)C(=O)N[C@@H](CC(C)C)C(=O)N[C@@H](CO)C(=O)N[C@H](C(N)=O)[C@@H](C)O
B2: N^ε24-[(4S)-4-carboxy-4-[[(4S)-4-carboxy-4-[[2-[2-[2-[[2-[2-[2-[[(4S)-4-carboxy-4-(17-carboxyheptadecanoylamino)butanoyl]amino]ethoxy]ethoxy]acetyl]amino]ethoxy … (peptide)
peptide: HSQGTFTSDYSRYLESRRAQDFVK([γGlu-γGlu-AEEA-AEEA-γGlu-C18 diacid])WLLST
modifications: not fully specified; printed as Nε24-[(4S)-4-carboxy-4-[[(4S)-4-carboxy-4-[[2-[2-[2-[[2-[2-[2-[[(4S)-4-carboxy-4-(17-carboxyheptadecanoylamino)butanoyl]amino]ethoxy]ethoxy]acetyl]amino]ethoxy]ethoxy]acetyl]amino]butanoyl]amino]butanoyl]-[Arg12,Glu15,Lys24,Leu27,Ser25]-Glucagon

Target: glucagon receptor (human, UniProt P47871 26-477)
Assay: cell-based or functional assay

Chain of glucagon receptor (P47871 26-477): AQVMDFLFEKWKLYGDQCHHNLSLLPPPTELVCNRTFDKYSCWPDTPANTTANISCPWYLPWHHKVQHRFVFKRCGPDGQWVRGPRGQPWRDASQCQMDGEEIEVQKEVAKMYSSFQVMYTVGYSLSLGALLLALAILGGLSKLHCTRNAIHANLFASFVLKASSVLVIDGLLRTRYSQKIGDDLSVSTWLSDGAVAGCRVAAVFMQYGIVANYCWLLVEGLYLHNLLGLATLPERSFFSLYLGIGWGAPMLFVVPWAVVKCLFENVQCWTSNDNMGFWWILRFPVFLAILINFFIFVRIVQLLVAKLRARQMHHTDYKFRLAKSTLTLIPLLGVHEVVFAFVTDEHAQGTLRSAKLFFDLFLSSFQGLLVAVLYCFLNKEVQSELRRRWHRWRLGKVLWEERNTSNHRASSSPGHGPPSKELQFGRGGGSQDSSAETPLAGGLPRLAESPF

Row | Binder | Assay (I) Glucagon [EC50]
1 | HSQGTFTSDYSRYLDERRAQDFVK([γGlu-γGlu-AEEA-AEEA-γGlu-C18 diacid])WLLST | 0.153 nM
2 | B1 | 0.039 nM
3 | HSQGTFTSDYSKYLDERRAQDFVK([γGlu-γGlu-AEEA-AEEA-γGlu-C18 diacid])WLLST | 0.13 nM
4 | HSQGTFTSDYSRYLDFRRAQDFVK([γGlu-γGlu-AEEA-AEEA-γGlu-C18 diacid])WLLST | 1.64 nM
5 | HSQGTFTSDYSKYLESRRAQDFVK([γGlu-γGlu-AEEA-γGlu-C18 diacid])WLLST | 0.28 nM
6 | HSQGTFTSDYSRYLDLRRAQDFVK([γGlu-γGlu-AEEA-AEEA-γGlu-C18 diacid])WLLTT | 0.754 nM
7 | HSHGTFTSDYSKYLDSRRAQDFVK([γGlu-γGlu-AEEA-AEEA-γGlu-C18 diacid])WLLST | 0.129 nM
8 | HSQGTFTSDYSKYLDARRAQDFVK([γGlu-γGlu-AEEA-AEEA-γGlu-C18 diacid])WLLST | 0.049 nM
9 | HSQGTFTSDYSRYLDRRRAQDFVK([γGlu-γGlu-AEEA-AEEA-γGlu-C18 diacid])WLLST | 0.355 nM
10 | HSHGTFTSDYSKYLDSRRAKDFVK([γGlu-γGlu-AEEA-AEEA-γGlu-C18 diacid])WLLST | 0.249 nM
11 | HSQGTFTSDYSRYLDLRRAQDFVK([γGlu-γGlu-AEEA-AEEA-γGlu-C14 diacid])WLLST | 0.006 nM
12 | HSHGTFTSDYSKYLDERRAKDFVK([γGlu-γGlu-AEEA-AEEA-γGlu-C18 diacid])WLLST | 0.237 nM
13 | B2 | 0.748 nM
14 | HSQGTFTSDYSRYLDLRRAQDFVK([γGlu-γGlu-γGlu-AEEA-AEEA-γGlu-C18 diacid])WLLST | 0.243 nM
15 | HSQGTFTSDYSRYLDTRRAQDFVK([γGlu-γGlu-AEEA-AEEA-γGlu-C18 diacid])WLEST | 0.176 nM
16 | HSQGTFTSDYSKYLDVRRAQDFVK([γGlu-γGlu-AEEA-AEEA-γGlu-C18 diacid])WLLST | 0.307 nM
17 | HSQGTFTSDYSRYLDLRRAQDFVK([γGlu-γGlu-γGlu-C18 diacid])WLLST | 1.32 nM
18 | HSQGTFTSDYSRYLDLRRAQDFVK([γGlu-γGlu-AEEA-AEEA-γGlu-C16 diacid])WLLST | 0.067 nM
19 | HSQGTFTSDYSKYLDTRRAQDFVK([AEEA-γGlu-γGlu-AEEA-γGlu-C18 diacid])WLLST | 0.078 nM
20 | HSQGTFTSDYSKYLDTRRAQDFVK([γGlu-AEEA-AEEA-γGlu-C18 diacid])WLLNI | 0.413 nM

— patent US20130079278A1 (Novo Nordisk, published 2013)
